Here are results for one molecule from patent US20100055117A1 (published 2010).

In test [1] the target is T1, FMNL1/KW13 peptide on HLA-A*02:01 (human).
T1 peptide: RLPERMTTL
Nature of the test: multimer staining.

Test [2] concerns the target T2, FRL (murine FMNL1 homologue) peptide on HLA-A*02:01 (human).
T2 peptide: RLPERMNTL
Description: killing.

B1: TCR of T cell clone SC22 (Vα14J41; Vβ14J2.5) (TCR)
alpha TRAV38-2/DV8*01; Vα14 TRAJ41*01; J41 CDR3: AYENSGYALNF
beta TRBV27*01; Vβ14 TRBJ2-5*01; Jβ2.5 CDR3: ASSFLGETQYF
Turning to B1, the binding result in test [1] and in test [2] was “recognises” in each case.
